Assay results taken from the DeepSol protein solubility set.

experiment: soluble on expression in E. coli; label from the status in PepcDB or PDB records

Sequence | soluble on expression in E. coli
DLPIADVQGSLDTRHIAIDRVGIKAIRHPVVVADKGGGSQHTVAQFNMYVNLPHNFKGTHMSRFVEILNSHEREISVESFEEILRSMVSRLESDSGHIEMAFPYFINKSAPVSGVKSLLDYEVTFIGEIKHGNQYSFTMKVIVPVTSLCPCSKKISDYGAHNQRSHVTISVRTNSFIWIEDIIRIAEEQASCELYGLLKRPDEKYVTERAYNNPKFVEDIVRDVAEVLNHDDRIDAYIVESENFESIHNHSAYA | not soluble
MGSDKIHHHHHHMSPRPKQLSLELGSPPPSTFDNFVVASNREAVQRLHDLPSAVAQERAIDRLFYLWGENGCGRTHLLHAVCEATPQTGINCRYLSPHHPLSDFLFDPSCQLYTVDDVELLDEARQIAVFSLYNEVRAHVRTALVVAGGMAPRAMPVREDLRTRLGWGLVYQVQPLSDEDKMSAVLQAARERGLQLSPEITHWLVTRHYRDMPSLMALLDALDTYSLERKRPVTLPLLREMFAEFRE | not soluble
MGSDKIHHHHHHMTNIILICVDQMRADTIRILGNPSIITPNLDALSLNSVVFSNHFSAGSPCSPARTSLLTGQYPATHGSITKNHRLKSTTNLALEIKKIGLSSTLFGFTDTVIPPYIQEKEGIMPGFDVQCYMNLHNIGLSGWAKELQKKGYHVLPNIMDIYRAEKAPYNYHDSDTAFLTDQVINYVASQGQEFGFIHLSYFRPHPPFIAPAPYSEYYPEVNCQKPEVDLETFLSMHPFHECLFHQLYKNTFNNLSYKQIESILTERFSRDKRAYYGLITELDYHLGRLITFLKDKGVYDETLLIFTSDHGELLGDKWLYEKGGYFDQSFHVPLLIKPPKALRSKQEGKIVDSFTSSIDLMPTILDIINAPIPESVEGLSLAELLSDGKNDSTRKDIIYEHYTTLPTKQLNRTLTIKDESFKYVYCSQFEHLLFDLKSDPDELKNLATESKHLNTVAYYQDRLRAEKLL | not soluble
MSATFSPTAVTDLKDIQDVERLMGRIKEARAAVGEVIFGQEAVVDEVLVTLLAGGHALLIGLPGLAKTKLVQTLGTVVGLRDKRVQFTPDLMPADILGSEVLEEDAAGQRGFRFLPGPVFCQLLMADEINRASPRTQSALLQAMQEHRVSVAGHYHDLPAPFHVLATQNPIEQEGTYPLPEAQLDRFLMQVDVGYPDEAAERRMLAATTGVHQPEARAVMTPAELQAAQALVRRVPVGDSVVDAILSLVRAGRPESSPLPEVRDWVAWGPGPRASQALTLAVRARALLDGRFAPSIEDVIALAHPILRHRMALSFGARADGVTLGRVVDRLIDKIA | soluble
MKSAELKYLDFEDFTKLIALAKEKINPIYSSSFMIYIAAMTGMRFSELLGLTWDNVDFEKGQIYVKRTWDIYKNNFAPTKNDQSVRFLAIDSSTMQVMINYKEQQEKLLKRLEIEPEHPFVFYNIKNGLITNNSLNKQLRNMCKKLGFKKIITCHGLRHTHASTMLYKGINILYVSKRLGHSSLNVTMSVYSHILKLEHHHHHH | not soluble
MGSDKIHHHHHHMRFTEGLWRLREGVQLFRPEQVYEYSCDGKKLILRSPFRRVEHRGQTLQGPVFEIEISSPFENVIRIRFRHFKGVLEKPPYYEIYQDESFTPDIKETEGSFIFTSGKAKAIIRKNPFGVEFFYEDRFLTKSDLGYAVAPEGRFCLERLHLSVGEMIYGLGERFSAFVKNAQRVVMWNEDAGTISDMTYKNIPFYVSIRKYGVFVNDPGKVDFEIATEHVEKVQFSVKGETLDYFIIAGKDLKEVLERYTLLTGRPELPPAWSFGLWLTTSFTTQYDERTVMEFVDGMRERDIPLHVFHFDCFWMKEFHWVDLEWNRENFPDPEGLLKRLKEKGLKVCVWINPYVSQFSSLFDEGKEKGYFLKKPDGDVWQTDDWQPGMAIIDFTNPEVRKWFASKLERLIDMGVDCFKTDFGEKIPTDVVYYDGSDPEKMHNYYTYLYNKVVFETIERKLGKRNAVVFARSATAGSQKFPVHWGGDCLASYESMAETLRGGLSLALCGFGFWSHDIGGFEDITTPDLYKRWVAFGLLSSHSRLHGNSMYKVPWNFDEEAVEVLRFFTKLKCKLMPYIFASAVEVHERGIPVMRPMILEFPDDPTCLYLDRQYMLGESLLVAPIFSETGEVTYYLPEGVWTHFLTGERVEGGRWRTEKYDYFGLPLFTRPNSIIPTGSVDDRPDYDYADGVTLNVFEISNKTAHVYNTRGEVELSVKVERKGNEIHVEVLKDSRKPWKLLFWNERLEAVEGAETRELEKGTEVVLSFQRAILKTK | not soluble
MGSSHHHHHHGKTIFVIVPTNEEQVAFLEALAKQDELNFDWQNPPTEPGQPVVILIPSDMVEWFLEMLKAKGIPFTVYVEEGGSENLYFQGGGGGGWPTEDPNELLKSQVWQKYHNQLNERKEYADKLLQDSNYIHRKNNPGE | soluble
SSIEFLAVEKQKIIAKETLELYAKIAGRIGMYPVKTQLADLSFKVLDPKNFNNTLSKINQQKVFYDNEWGNFKKQLEEMLEQNQIEYRLE | not soluble
MSMSVILRKSLIEVLNKKNEKKKDVAREISTSQQSLSDWTSQNNVKPVTIENALRLSDHFRDSTFTMEVIHQFFGMFKTCDGDVYRKDPSSLDRLQKIESNERKALKHDIERIVLKNPEYLSEQDISKIVAYANEYLDEVIVEITLLSSLCDLASIDIRYLSEQRFPYWEQLGYMRKENTNGTRSY | not soluble
MRLRLLSLPFILSLCAPLLPLNTLAAERIVTIGGDVTEIAYALGAGDEIVARDSTSQQPQAAQKLPDVGYMRTLNAEGILAMKPTMLLVSELAQPSLVLTQIASSGVNVVTVPGQTTPESVAMKINAVATALHQTEKGQKLIEDYQQRLAAVNKTPLPVKVLFVMSHGGLTPMAAGQNTAADAMIRAAGGSNAMQGFSRYRPLSQEGVIASAPDLLLITTDGVKALGSSENIWKLPGMALTPAGKHKRLLVVDDMALLGFGLETPQVLAQLREKMEQMQ | not soluble
MADKLFSIRNYFFLGSYQSCIGEALKFSSKNEEEKQEKDVYLYRSYIAQGQAFIPLKEIPAATKSADLAAVRRYAEFRNNPAAKKKILAEVQEEVASRNIKSEIAAVLAATILNEADLSQDAFRAVSRFEGLEARASKVFILIKMNKRKLAIGEVKKMNQIDEDATLSQLANALVTSFGASGKVKDALYIYSEMSDKYGRTTDLEMHQAVVSILTQDYAAAEELLESALERDNKDADVLINSIVSAQLNEKDDDVVERFISQLKHEHPNHPWVIDFNEKEAEFDRVASDSRA | not soluble
GSHGMSKSPEEEHPVKAFGWAARDQSGHLSPFNFSRRATGEEDVRFKVLYCGVCHSDLHSIKNDWGFSMYPLVPGHEIVGEVTEVGSKVKKVNVGDKVGVGCLVGACHSCESCANDLENYCPKMILTYASIYHDGTITYGGYSNHMVANERYIIRFPDNMPLDGGAPLLCAGITVYSPLKYFGLDEPGKHIGIVGLGGLGHVAVKFAKAFGSKVTVISTSPSKKEEALKNFGADSFLVSRDQEQMQAAAGTLDGIIDTVSAVHPLLPLFGLLKSHGKLILVGAPEKPLELPAFSLIAGRKIVAGSGIGGMKETQEMIDFAAKHNITADIEVISTDYLNTAMERLAKNDVRYRFVIDVGNTLAATKP | soluble
MSNCEIIAVHGGACAKFDASLAEDCRFACGTGTVENALTDLERIEKFNCGFGSHLTIDQEVECEASYMSSKNLSFGAVGAISNVFHPSRVARHLAHSNWWKQRRLLHPLILVGRGAEKYAVKNDFPTCTPEELVSKAAKESFEKYLHRMLHPYDTHDTVGAISINTNTMNSESGTSSGGIVLKHSGRLGHSCVYGSGTWSERRQYEEPFDQVSERTISICSTGHGESLVKADFCRGIATRVLDDEEGIMYSEIIREFIHEKMEHGSRYGGIALIADKFKDRMSLEFLIFHNCRYLPAAVRCRDNQIRVFESQFDPDQCTTDPKCVIESFIM | not soluble
MTTETQADRTQQAVGRIIGSIGVVTTQTTGRHQGILTSWVSQASFTPPGIMLAIPGEFDAYGLAGQNKAFVLNLLQEGRSVRRHFDHQPLPKDGDNPFSRLEHYSTQNGCLILAEALAYLECLVQSWSNIGDHVLVYATVQAGQVLQPNGITLEHHHHHH | soluble
MGSDKIHHHHHHLYINKRPIFLVHGLWNNPKLFEKLIKKINEDDYELYRPHLPHKYGKTSLKRLALDLDSKIEELVGPEIEIDIVGFSMGGLISRFWLQNHDGFLRTKRFFSIGTPHFGTYTAQMIPSFLMPGIAEMKRGSRLLSLLNNDLTSLEKVECTSFFTKWDLMSFPGWQAKLSIGESYHLPVLTHKELITNSSSLDILVKKIFKNS | not soluble
MTENVNSSGDSAIKSEDKEEVTVIQEGQAKVGFHGPVFYNPVQEFNRDLTVTVLRQFSADHQKWAEEQKQLKTEEEPPKKKNKLAINEDGKIRILDALSASGLRALRFSKEVPNVGFIMANDFSDNAVASIQENVKLNGVEDIVEAHFGDAVMTMMEHRGIDKRFHAVDLDPYGTASTFLDSAVQCVADRGILMVTCTDMAVLCGNTPEACYNKYDAVTTRMKCCHEVGLRILLRAIDSAANRYTRYIEPLVSISVDFYVRVFVRVHTGAFQAKQSGTKVGTVLVCSGCHSMEPLVLLKRGEGNQQSKYSIPTVRHSISGPGNRCIHCLLPLHQIGPIYLAPIHSKPFVTSLLERLKSTPEAERLGTHGRLQGVLTMVNEELDDVLYYEHNQMANVVKVSVPKSQSVRSAILNAGFKVSGSHCNPRAIKTNAPMHLLWDIYRQVAKDTSVDREKRLAKESAGYHILGQPITNTVNFTLHPGAIEQAKKENLVRFQCNKGKNWGPRQKAKGSVNSTKAGFQLTEHKE | not soluble
LGIAGLRYTFTFAVATAPSELLNITWYSAVSAAFNGALKFSITPLLPLGPITDERVEVSITALTPLSGVRSTSTALTPVRLCSAFAILFTDTKAEKLEFFEDTTERVDGDAVIPHTVNSETAALPTPFS | not soluble
EKDSQSPKIRQKYLRQYPELNSLIPAVVTEVREKEATAALQNGQIIIIPWEGMSWARPALKRGGWVGKSPTKAQQVVAAGDIIYVHPTEKSWQLAQIP | not soluble
MISTPPVARNIMRCMSDQLKLDQQICFQLYTGSRLMQRMYRVYFDQWGITYSQYLVLLLLWEKDRQTISELSDPLDLDSGTLSPLLRRMEANGFITREHEQSDYRKVVVCLTTRGRRLKTKAKKMNDELNDMLGFDDADLAAVTRVLEKINPSAAI | not soluble
MSLKILLLEDEVMLNESICEYLDSEGHHVESFFNGLAALEAIKENSYDLLVLDINVPGIDGLSFLEKIHELKIHVSVIYISALVDIEDISRAYTLGCHDYLKKPFHLKELSLRVDRIKLSSVVPRVHLRLCKNYSYDQENSTLLFNQEVQILTKRQAQIIDLLSRNRGRIVDFEQFQTYVWSEQIVDNATIRAEINRLKKNLKEDFVINVRGMGYMIDKEGHHHHHH | not soluble
GPGSMLHFPITPPPIEIEYLDNDPLEFAVRTEARKWRFDDMGYMRELAFVRINNNPTVGDFRNMSPDERRNLFWGSDRQDFFRHLTCTLTGSPEHLYHRGW | not soluble
MPIRAMEKATAGKLLTRAEALSLLTEGDLLALGRLADAVRRRMHPENLVTFVVDRNVNYTNVCESKCKFCAFYRDEAAPDAYLLAEEAIFAKIAELVEHGGTQLLMQGGLHPQLGIDWFEDLFRGIKARFPQVQNHSLSPAEITQIATVSKLTIPETVRRLREAGLDSIPGGGAEILVDSVRQEISPRKIGWEGWAAVMSEAARQGMATTATMMFGSRETPEDIVEHLFRVRELQAAGGSFTAFIPWTYQPGNTELGGTGATGVEYLKVLALSRIVLDNIPSIQASWVTQGAAMAQVSLFFGANDLGGTMLEENVVAAAGCTFRMSREEMVELIREAGFRAAQRTTLYSIIREY | not soluble
